Laboratory results published in the supplement of paper PMC9170038.

Test system: MS2 coat protein
Test: apparent KD of MS2 coat protein; designed switch direction (-1 OFF switch, 1 ON switch): -1; higher = weaker reporter binding
In short: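 Designed RNA switches with common flanks were transcribed on Illumina chips by stalled E. coli RNA polymerase and titrated with SNAP-549-labelled MS2 coat protein, from 0.7 or 1.5 nM doubling to 3 µM, in Tris-HCl pH 7.5 buffer with KCl, MgCl2, BSA, DTT, tRNA and Tween-20. Steps lasted 0.8–1.5 h (lowest) to 10–20 min (highest). Titrations ran without input, with 200 uM small-molecule ligand, or with an oligonucleotide input. Normalised cluster fluorescence was curve-fitted, and apparent KD is the per-design median over clusters.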

[1] = Eterna round: R95, input ligand: FMN 200 uM
[2] = Eterna round: R95, input ligand: microRNA oligo, concentration not stated
[3] = Eterna round: R95, input ligand: none
[4] = input ligand: microRNA oligo, concentration not stated

| Sequence | apparent KD of MS2 coat protein [2] | apparent KD of MS2 coat protein (input ligand: FMN 200 uM) | apparent KD of MS2 coat protein (input ligand: none) | also measured |
| --- | --- | --- | --- | --- |
| GGCCCUAGGGUCAGAUGCACAAGCUUUUUGCUCGUUUUAACAUGAGGAUCACCCAUGUCUAGUGGAUCUGAUCGGGU [Indiso] (puzzle: Sensor v3, turn-off variant 2) | 48.7 nM |  |  | apparent KD of MS2 coat protein [1]: 18.2 nM; apparent KD of MS2 coat protein [3]: 17.4 nM |
| AGAUCGUCAGGAUAUACAUGAGGAUCACCCAUGUGUAGUCCAAAUUUGACUACAACAUGUAGAAGGGACGAUCG [Exclusion 3 (MOD2 of #1 Marzena11)] (Eterna round: R97, puzzle: Exclusion 3) |  | 209 nM | 44 nM |  |
| GAAGUCGACUAGGAUAUUACAGGCUCAUGCCGUUGAGAAGGAGUGACAUGAGGAUCACCCAUGUCCUCAAGCGC [Eternabot (Original) Solution 48] (Eterna round: R97, puzzle: Exclusion 6) |  | 20.3 nM | 16.2 nM |  |
| AGUGCGUAUGUGAGGAUAUGCUGGUCCUUGGAUCAGCAGAAGGCACAUGAGGAUCACCCAUGUGGUGUCGUACC [salish99_Bmod_Ex4_003] (puzzle: Brourd's mod of Exclusion 4) | 180 nM |  |  |  |
| GGUCAAGAACAGAUCCGCGCUGCCAUUGACCGCUCAUUUACAUGAGGAUCACCCAUGUUUUUUGCUCAUCUUGUUAC [Usdila] (puzzle: Sensor v3, turn-off variant 2) | 62.2 nM |  |  | apparent KD of MS2 coat protein [1]: 20.2 nM; apparent KD of MS2 coat protein [3]: 19.8 nM |
| AUCAUGGGAGGAUAUCACCUAUGUUACAUGAGGAUCACCCAUGUGAGACUAAAUGACUGCUGAGAAGGCUCAACGC [Eternabot (Original) Solution 25] (Eterna round: R97, puzzle: Exclusion 5) |  | 205 nM | 234 nM |  |
| CAGUACUGAGGAUAUACAUGAGGAUCACCCAUGUGUCCCGGCUAGGAAACUAGCAAAAGUAGAAGGCAGUACUG [Fiskers Ex 3 828 mod 2] (puzzle: Exclusion 3) | 25.1 nM |  |  |  |
| UCCUCGUCAGGAUAUCCACGGAAUAGCGGGAUACCGAGCGUGGAGAAGGGACAUGAGGAUCACCCAUGUAAAAU [Edlare] (puzzle: Exclusion 4) | 24.9 nM |  |  |  |
| AAGAAACAUGAGGAUCACCCAUGUGAGGAUAUGACGAAGAAAAGAAAAGAAAGAAGAUUCAGAAGGCACAAAGG [salish99-ex1_r3_061] (puzzle: Exclusion 1) | 42.9 nM |  |  | apparent KD of MS2 coat protein [1]: 90.1 nM; apparent KD of MS2 coat protein [3]: 56.4 nM |
| UGGCUACAUGAGGAUCACCCAUGUCAGGAUAUGCCGUUAAAUUAACAUCAACAUACGGGUAGAAGGGACAGCGU [1st #6] (Eterna round: R97, puzzle: Exclusion 1) |  | 43.5 nM | 41.7 nM |  |
| UUAUUAUAUGUAGGAUAUGCAUAUUAUUAUUAUGCAGAAGGACAUGAGGAUCACCCAUGUAUAUUGUUAUUAUAUAUUAUAUAU [Title] (Eterna round: R96, puzzle: Exclusion NG 1) |  |  |  | apparent KD of MS2 coat protein [4]: 21.7 nM |
| UAUAACAGAGGAUAUGCGAAUAAAUAAAACUUUUUUUUUUAACAUGAGGAUCACCCAUGUAGAAGGCUGAUAUU [Ex2 #22] (Eterna round: R97, puzzle: Exclusion 2) |  | 28.5 nM | 51.6 nM |  |
| CUGUGCACGCUGCGGUCCUACAUGAGGAUCACCCAUGUGGUCUGGUGGCGUGGGUCACCGGACUUGGCUCGUCUUGU [salish99_S_TOV1_R5_064] (Eterna round: R97, puzzle: Sensor, turn-off variant 1) |  | 35.7 nM | 42.3 nM |  |
| UGGUAACAUGAGGAUCACCCAUGUCAGGAUAUCAGUAAGAAGAGAUUAGAUUAGAAUAUGAGAAGGGACUAUAG [Excluse me! 2 - Jieux - Exclusion 1] (puzzle: Exclusion 1) | 40.3 nM |  |  | apparent KD of MS2 coat protein [1]: 30.1 nM; apparent KD of MS2 coat protein [3]: 37.8 nM |
| GUAGAGUGAGGAUAUACGAGAUCGAUAGAUCAACGAUCCAAACAUGAGGAUCACCCAUGUAGAAGGCACUCUAC [Mat - Exclusion 2 - Eli Mod - D8] (Eterna round: R97, puzzle: Exclusion 2) |  | 224 nM | 23.1 nM |  |
| UAUUAACAAGCGAGAUCCUACAUGAGGAUCACCCAUGUGCUCGUCUUAUAAGGUACUGUGACGAAAGUCACGGUACC [Eli 91 v37] (Eterna round: R97, puzzle: Sensor, turn-off variant 1) |  | 19.5 nM | 21 nM |  |
| GUCUUCAUGACAUGAGGAUCACCCAUGUGUUAUUUGUUAACUAAGGAUAUAUUUUUAAUGUUGAGAUAGAAGGUAGUUUCGGUC [JR_ExcNG3_Sub090] (Eterna round: R96, puzzle: Exclusion NG 3) |  | 161 nM | 149 nM | apparent KD of MS2 coat protein [4]: 93 nM |
| UAGCAGAGAGGAUAUACAUUCAUCACCCGCGCAACAAGCGCACAUGAGGAUCACCCAUGUAGAAGGCUCGUGCC [EX2 C.20] (Eterna round: R97, puzzle: Exclusion 2) |  | 53.6 nM | 31.7 nM |  |

| Sequence | apparent KD of MS2 coat protein [2] | apparent KD of MS2 coat protein (input ligand: FMN 200 uM) | apparent KD of MS2 coat protein (input ligand: none) | also measured |
| --- | --- | --- | --- | --- |
| AGUAAGCUAGGAUAUGCUUUGGGAAAGCAUUCCUUCGAUAAACUUGAGGAUCACCCAAGUAGAAGGAGCUUACA [salish99_ex2_r4_004] (Eterna round: R97, puzzle: Exclusion 2) |  | 20.2 nM | 13.8 nM |  |
| CUGAGAUCAGGAUAUACAUGAGGAUCACCCAUGUAAAGUAGCUUGCGUACAGGCAGAUGUAGAAGGGAUUUCGG [Mod of JL 5 - Jieux - Exclusion 3] (Eterna round: R97, puzzle: Exclusion 3) |  | 29.7 nM | 26.5 nM |  |
| AGGGUAAAGUUAGGAUAUGCGAAUAAUCCAGACGCAGAAGGAACAGGUCGCAUGUGAGUCACAUGAGGAUCACCCAUGUAACUA [Ceissoar] (Eterna round: R96, puzzle: Exclusion NG 1) |  | 143 nM | 36.1 nM | apparent KD of MS2 coat protein [4]: 29.6 nM |
| CGGUGCUGAGGAUAUACAUGAGGAUCACCCAUGUGUUCCAGCUAGCGUACUGGCAGAUGUAGAAGGCGGUACUG [JL-ex3-3.42 Brourd mod] (puzzle: Exclusion 3) | 19.9 nM |  |  | apparent KD of MS2 coat protein [1]: 78.9 nM; apparent KD of MS2 coat protein [3]: 19 nM |
| CUAUGAGUAGGAUAUGAGCCAAAAUACAUGAGGAUCACCCAUGUCGGGUUCAUGGAGGGCUCAGAAGGAUUCAAUA [Exclusion 5 - Laarte Mod2] (Eterna round: R97, puzzle: Exclusion 5) |  | 59.8 nM | 17.1 nM |  |
| CUGUGUAGACAGGAUAUGCUGUACAAAAGUACAGCAGAAGGGUCUACAUGAGGAUCACCCAUGUAUACUUCAUG [)mei Ex6 B24] (Eterna round: R97, puzzle: Exclusion 6) |  | 391 nM | 920 nM |  |
| GCUUGUAGAGGAUAUACAAGGGCCCGAGCGGCGAGAGCCGCACAUGAGGAUCACCCAUGUAGAAGGCUACUAUA [JL-ex2-4.21 ViennaUCT mod] (Eterna round: R97, puzzle: Exclusion 2) |  | 201 nM | 237 nM |  |
| CUUUUGGGAGGAUAUUAGUAGUAAAUAAAUAAAAUUACUACUGAGAAGGCACAUGAGGAUCACCCAUGUUCCUC [salish99_ex4_r3_071] (puzzle: Exclusion 4) | 19.7 nM |  |  |  |
| CUGUACUGAGGAUAUACAUGAGGAUCACCCAUGUGAUUCAGUGCACGCGUACGUGUACGUAGAAGGCAGUACAG [Mat - Exclusion 3 - Eli Mod - D37] (Eterna round: R97, puzzle: Exclusion 3) |  | 750 nM | 42.5 nM |  |
| GGUAAGUGUGACUUGGGUGACAUGAGGAUCACCCAUGUCACAAGCUUGUUGCUCGCCUUGUAAUUAACCCAUGUCAC [LRO Sensor-off var1-28 mod of Stov1-13-A1 by Brourd] (Eterna round: R97, puzzle: Sensor, turn-off variant 1) |  | 17.3 nM | 18.6 nM |  |
| AAUUUAACAUAGGAUAUCGAAUUUAUCAUUUAACGAGAAGGAUGAACAUGAGGAUCACCCAUGUGGUAUCAUGG [Mat - Exclusion 6 - JL Mod - D2] (puzzle: Exclusion 6) | 373 nM |  |  | apparent KD of MS2 coat protein [1]: 155 nM; apparent KD of MS2 coat protein [3]: 180 nM |
| CUGUACUGAGGAUAUACAUGAGGAUCACCCAUGUGCUUCAGCUAGGAAACUAGCAAAGGUAGAAGGCAGUACAG [Mat - Exclusion 3 - Eli Mod - D58] (Eterna round: R97, puzzle: Exclusion 3) |  | 109 nM | 14.5 nM |  |
| CUUUUGUGAGGAUAUCAGUAGUAAAUAAAUAAAAUUACUACUGAGAAGGCACAUGAGGAUCACCCAUGUUCCUC [salish99_ex4_r3_015] (puzzle: Exclusion 4) | 37.4 nM |  |  |  |
| UUAUAUAGAGUGAGGAUAUGCUGGUCCUUGGAUCAGCAGAAGGCACAUGAGGAUCACCCAUGUAAUAUAAUAUU [Mat - Exclusion 4 - JL Mod - D38] (puzzle: Brourd's mod of Exclusion 4) | 21.1 nM |  |  |  |
| CCGCUACAUGAGGAUCACCCAUGUCAGGAUAUCGUACGUUCGUCGAUAGACGAUCGUACGAGAAGGGUGAGCGG [Mat - Exclusion 1 - Eli Mod - D37] (Eterna round: R97, puzzle: Exclusion 1) |  | 156 nM | 209 nM |  |
| GAAGAAGAGAGAAUAGAAAACAUGAGGAUCACCCAUGUGAGAAGAUGAGGGUGUAAUAGGCUUUUUGCUCGUCUUAU (puzzle: Sensor v3, turn-off variant 1) | 94.4 nM |  |  | apparent KD of MS2 coat protein [1]: 42.7 nM; apparent KD of MS2 coat protein [3]: 56 nM |
| UUACCAUGCCGCCUAAUAGCUUUUUGCUCGUCUUAUAUUACAUGAGGAUCACCCAUGUAAAACAUGUGGCGUGACCU [JL ViennaUCT Maridi mod 1] (puzzle: Sensor v3, turn-off variant 2) | 112 nM |  |  | apparent KD of MS2 coat protein [1]: 79.8 nM; apparent KD of MS2 coat protein [3]: 87.3 nM |
